# Test results taken from patent US20210230570.
# Changes are numbered by the printed parent chain. In names and notes the source's numbering stands.
# B1: FIXa-R318Y/R338E/R403E/E410N (protein)
# chain 1: YNSGKLEEFVQGNLERECMEEKCSFEEAREVFENTERTTEFWKQYVDGDQCESNPCLNGGSCKDDINSYECWCPFGFEGKNCELDVTCNIKNGRCEQFCKNSADNKVVCSCTEGYRLAENQKSCEPAVPFPCGRVSVSQTSKLTR
# chain 2: VVGGEDAKPGQFPWQVVLNGKVDAFCGGSIVNEKWIVTAAHCVETGVKITVVAGEHNIEETEHTEQKRNVIRIIPHHNYNAAINKYNHDIALLELDEPLVLNSYVTPICIADKEYTNIFLKFGSGYVSGWGRVFHKGYSALVLQYLRVPLVDRATCLESTKFTIYNNMFCAGFHEGGRDSCQGDSGGPHVTEVEGTSFLTGIISWGEECAMKGKYGIYTKVSEYVNWIKNKTKLT
# B2: FIXa-K247N/N249S/N260S/R318Y/R338E/R403E/E410N (protein)
# chain 1: B1 chain 1
# chain 2: B1 chain 2 with K67N, N69S, N80S
# B3: FIXa-D104N/K106S/Y155F/K247N/N249S/N260S (protein)
# chain 1: B1 chain 1 with D104N, K106S
# chain 2: B1 chain 2 with K67N, N69S, N80S, Y138R, E158R, E223R, N230E
# B4: FIXa-R318Y/R338E/T343R/N346Y/R403E/E410N (protein)
# chain 1: B1 chain 1
# chain 2: B1 chain 2 with T163R, N166Y
# B5: FIXa-K247N/N249S/R338E/T343R/R403E (protein)
# chain 1: B1 chain 1
# chain 2: B1 chain 2 with K67N, N69S, Y138R, T163R, N230E
# B6: FIXa-K293A/R338A/R403A (protein)
# chain 1: B1 chain 1
# chain 2: B1 chain 2 with K113A, Y138R, E158A, E223A, N230E
# B7: FIXa R318Y/R338E/R403E/E410N (mature FIX numbering) (protein)
# chain 1: B1 chain 1
# chain 2: B1 chain 2
# B8: FIXa-K247N/N249S/R318Y/R338E/T343R/R403E/E410N (protein)
# chain 1: B1 chain 1
# chain 2: B1 chain 2 with K67N, N69S, T163R
# B9: FIXa-K293E/R338E/R403E (protein)
# chain 1: B1 chain 1
# chain 2: B1 chain 2 with K113E, Y138R, N230E
# B10: FIXa-R318Y/R338E/T343R/N346D/R403E/E410N (protein)
# chain 1: B1 chain 1
# chain 2: B1 chain 2 with T163R, N166D
# B11: FIXa-R318Y/R338E/Y345A/N346D/R403E/E410N (protein)
# chain 1: B1 chain 1
# chain 2: B1 chain 2 with Y165A, N166D
# B12: FIXa-Y155F/R318Y/R338E/N346D/R403E/E410N (protein)
# chain 1: B1 chain 1
# chain 2: B1 chain 2 with N166D
# B13: FIXa A103N/N105S/R318Y/R338E/R403E/E410N (mature FIX numbering) (protein)
# chain 1: B1 chain 1 with A103N, N105S
# chain 2: B1 chain 2
# B14: FIXa-R318Y/R338E/Y345A/R403E/E410N (protein)
# chain 1: B1 chain 1
# chain 2: B1 chain 2 with Y165A
# B15: FIXa D104N/K106S/R318Y/R338E/R403E/E410N (mature FIX numbering) (protein)
# chain 1: B1 chain 1 with D104N, K106S
# chain 2: B1 chain 2
# B16: FIXa-R318Y/R338E/N346Y/R403E/E410N (protein)
# chain 1: B1 chain 1
# chain 2: B1 chain 2 with N166Y
# B17: FIXa D203N/F205T/R318Y/E410N (mature FIX numbering) (protein)
# chain 1: B1 chain 1
# chain 2: B1 chain 2 with D23N, F25T, E158R, E223R
# B18: FIXa-R318Y/R338E/T343R/E410N (protein)
# chain 1: B1 chain 1
# chain 2: B1 chain 2 with T163R, E223R
# B19: FIXa Y155F/R318Y/R338E/R403E/E410N (mature FIX numbering) (protein)
# chain 1: B1 chain 1
# chain 2: B1 chain 2
# B20: FIXa-R318Y/R338E/T343R/R403E/E410N (protein)
# chain 1: B1 chain 1
# chain 2: B1 chain 2 with T163R
# B21: FIXa D104N/K106S/Y155F/R318Y/R338E/R403E/E410N (mature FIX numbering) (protein)
# chain 1: B1 chain 1 with D104N, K106S
# chain 2: B1 chain 2
# B22: FIXa A103N/N105S/Y155F/R318Y/R338E/R403E/E410N (mature FIX numbering) (protein)
# chain 1: B1 chain 1 with A103N, N105S
# chain 2: B1 chain 2
# B23: FIXa-K228N/K247N/N249S (protein)
# chain 1: B1 chain 1
# chain 2: B1 chain 2 with K48N, K67N, N69S, Y138R, E158R, E223R, N230E
# B24: FIXa-R318Y/R338E/E410N (protein)
# chain 1: B1 chain 1
# chain 2: B1 chain 2 with E223R
# Columns and labels:
# [1] = target: Factor X (FX), substrate zymogen, P00742
# Factor X (FX), substrate zymogen, P00742, sequence (P00742 whole entry, looked up): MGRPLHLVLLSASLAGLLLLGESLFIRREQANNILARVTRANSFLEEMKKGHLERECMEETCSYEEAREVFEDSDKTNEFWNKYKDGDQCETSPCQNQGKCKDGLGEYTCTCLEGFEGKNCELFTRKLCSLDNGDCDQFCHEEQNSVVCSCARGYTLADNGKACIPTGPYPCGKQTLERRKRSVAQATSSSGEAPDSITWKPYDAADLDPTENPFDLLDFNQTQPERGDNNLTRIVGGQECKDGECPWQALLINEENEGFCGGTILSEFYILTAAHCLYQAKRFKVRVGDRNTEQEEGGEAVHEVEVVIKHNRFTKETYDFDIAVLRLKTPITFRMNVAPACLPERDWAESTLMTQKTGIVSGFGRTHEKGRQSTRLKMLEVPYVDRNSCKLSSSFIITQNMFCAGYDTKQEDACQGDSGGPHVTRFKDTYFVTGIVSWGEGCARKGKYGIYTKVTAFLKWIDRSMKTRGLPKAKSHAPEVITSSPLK
# [2] = target: antithrombin III (plasma purified human AT-III), in complex with unfractionated heparin
# [3] = target: Antithrombin III (plasma purified human AT-III, Molecular Innovations), as AT-III/UFH complex
# [4] = target: plasma purified human AT-III (Molecular Innovations)
# [5] = target: plasma purified human antithrombin III (AT-III) in complex with unfractionated heparin (AT-III/UFH)
# [6] = target: plasma purified human AT-III (antithrombin III), in complex with full-length unfractionated heparin (AT-III/UFH)
# Factor X, P00742, sequence (P00742 whole entry, looked up): as above
# Factor X (FX), P00742, sequence (P00742 whole entry, looked up): as above
protein,measurement,setting,value
B1,"kcat/KM (M^-1s^-1), FX activation by FIXa in the Xase complex","Factor X (FX), P00742",1.5e+08 M⁻¹ s⁻¹
same,"catalytic activity (kcat/KM) for activation of FX in the Xase complex (FVIIIa, PC/PS vesicles, Ca2+), fluorogenic FXa read-out",[1],displayed some of the greatest increases in catalytic activity
same,KM (Catalytic activity of FIXa variants),"Factor X, P00742",0.0455 µM
same,K0.5,[2],5.88 µM
B2,K0.5-mut/K0.5-wt (against Catalyst Biosciences WT FIXa),[3],288
same,KM,"Factor X (FX), P00742",0.0474 µM
same,KM (nM); Catalytic activity of FIXa variants (KM),"Factor X (FX), P00742",62.2 nM
same,"kcat of FX activation by FIXa in the Xase complex (FVIIIa, PC/PS vesicles, Ca2+)","Factor X (FX), P00742",3.4 s⁻¹
same,kcat/KM,"Factor X (FX), P00742",9.7e+07 M⁻¹ s⁻¹
B3,K0.5-mut/K0.5-wt (against Catalyst Biosciences WT FIXa),[3],35.8
same,KM (nM); Catalytic activity of FIXa variants (KM),"Factor X (FX), P00742",68.5 nM
same,"kcat of FX activation by FIXa in the Xase complex (FVIIIa, PC/PS vesicles, Ca2+)","Factor X (FX), P00742",0.5 s⁻¹
B4,K0.5-mut/K0.5-wt (against Catalyst Biosciences WT FIXa),[3],> 517
same,KM,"Factor X (FX), P00742",0.0158 µM
same,"kcat of FX activation by FIXa in the Xase complex (FVIIIa, PC/PS vesicles, Ca2+)","Factor X (FX), P00742",4.6 s⁻¹
B5,kcat,"Factor X (FX), P00742",14.6 s⁻¹
same,kcat/KM,"Factor X (FX), P00742",5.6e+08 M⁻¹ s⁻¹
same,"catalytic activity (kcat/KM) for activation of FX in the Xase complex (FVIIIa, PC/PS vesicles, Ca2+), fluorogenic FXa read-out",[1],improved activity when combined with other mutations
B6,kcat (FX activation in the Xase complex),"Factor X (FX), P00742",1.6 s⁻¹
same,"kcat/KM for FX activation (Xase assay with FVIIIa, PC/PS vesicles, Ca2+)","Factor X (FX), P00742",2.5e+07 M⁻¹ s⁻¹
same,% of WT (kcat/KM),"Factor X, P00742",53%
same,kcat/KM,"Factor X, P00742",2.5e+07 M⁻¹ s⁻¹
same,K0.5,[2],> 0.999 µM
same,K0.5-mut/K0.5-wt,[2],> 51.7
same,K0.5-mut/K0.5-wt,[4],16.9
B7,K0.5,[5],5.88 µM
B8,KM,"Factor X (FX), P00742",0.0292 µM
same,"kcat of FX activation by FIXa in the Xase complex (FVIIIa, PC/PS vesicles, Ca2+)","Factor X (FX), P00742",10.6 s⁻¹
same,"catalytic activity (kcat/KM) for activation of FX in the Xase complex (FVIIIa, PC/PS vesicles, Ca2+), fluorogenic FXa read-out",[1],improved activity when combined with other mutations
B9,kcat (FX activation in the Xase complex),"Factor X (FX), P00742",0.8 s⁻¹
same,"kcat/KM for FX activation (Xase assay with FVIIIa, PC/PS vesicles, Ca2+)","Factor X (FX), P00742",1.7e+07 M⁻¹ s⁻¹
same,% of WT (kcat/KM),"Factor X, P00742",36%
same,KM (Catalytic activity of FIXa variants),"Factor X, P00742",0.05 µM
same,kcat/KM,"Factor X, P00742",1.7e+07 M⁻¹ s⁻¹
same,K0.5,[2],> 0.999 µM
same,K0.5-mut/K0.5-wt,[2],> 51.7
same,K0.5-mut/K0.5-wt,[4],14.2
B10,K0.5-mut/K0.5-wt (against Catalyst Biosciences WT FIXa),[3],> 517
same,KM,"Factor X (FX), P00742",0.067 µM
same,"kcat of FX activation by FIXa in the Xase complex (FVIIIa, PC/PS vesicles, Ca2+)","Factor X (FX), P00742",5.4 s⁻¹
B11,K0.5-mut/K0.5-wt (against Catalyst Biosciences WT FIXa),[3],> 517
same,KM,"Factor X (FX), P00742",0.0565 µM
same,"kcat of FX activation by FIXa in the Xase complex (FVIIIa, PC/PS vesicles, Ca2+)","Factor X (FX), P00742",1.2 s⁻¹
B12,K0.5-mut/K0.5-wt (against Catalyst Biosciences WT FIXa),[3],> 517
same,KM (nM); Catalytic activity of FIXa variants (KM),"Factor X (FX), P00742",100 nM
same,"kcat of FX activation by FIXa in the Xase complex (FVIIIa, PC/PS vesicles, Ca2+)","Factor X (FX), P00742",6.4 s⁻¹
same,K0.5-mut/K0.5-wt (against Catalyst Biosciences WT FIXa),[6],> 517
B13,K0.5,[5],9.19 µM
B14,K0.5-mut/K0.5-wt (against Catalyst Biosciences WT FIXa),[3],> 517
same,KM,"Factor X (FX), P00742",0.0188 µM
same,"kcat of FX activation by FIXa in the Xase complex (FVIIIa, PC/PS vesicles, Ca2+)","Factor X (FX), P00742",1.4 s⁻¹
B15,K0.5,[5],> 10 µM
B16,K0.5-mut/K0.5-wt (against Catalyst Biosciences WT FIXa),[3],> 517
same,KM,"Factor X (FX), P00742",0.0281 µM
same,"kcat of FX activation by FIXa in the Xase complex (FVIIIa, PC/PS vesicles, Ca2+)","Factor X (FX), P00742",3.4 s⁻¹
B17,K0.5,[5],1.28 µM
B18,KM,"Factor X (FX), P00742",0.0164 µM
same,"kcat of FX activation by FIXa in the Xase complex (FVIIIa, PC/PS vesicles, Ca2+)","Factor X (FX), P00742",4.9 s⁻¹
same,"catalytic activity (kcat/KM) for activation of FX in the Xase complex (FVIIIa, PC/PS vesicles, Ca2+), fluorogenic FXa read-out",[1],displayed some of the greatest increases in catalytic activity
B19,K0.5,[5],> 10 µM
B20,K0.5-mut/K0.5-wt (against Catalyst Biosciences WT FIXa),[3],> 517
same,KM,"Factor X (FX), P00742",0.0247 µM
same,KM (nM); Catalytic activity of FIXa variants (KM),"Factor X (FX), P00742",22.3 nM
same,"kcat of FX activation by FIXa in the Xase complex (FVIIIa, PC/PS vesicles, Ca2+)","Factor X (FX), P00742",9.7 s⁻¹
same,kcat/KM,"Factor X (FX), P00742",5.4e+08 M⁻¹ s⁻¹
same,"catalytic activity (kcat/KM) for activation of FX in the Xase complex (FVIIIa, PC/PS vesicles, Ca2+), fluorogenic FXa read-out",[1],displayed some of the greatest increases in catalytic activity
B21,K0.5,[5],> 10 µM
B22,K0.5,[5],> 10 µM
B23,"catalytic activity (kcat/KM) for activation of FX in the Xase complex (FVIIIa, PC/PS vesicles, Ca2+), fluorogenic FXa read-out",[1],demonstrated close to wild-type activity
same,K0.5-mut/K0.5-wt (against Catalyst Biosciences WT FIXa),[6],4.4
B24,"kcat/KM (M^-1s^-1), FX activation by FIXa in the Xase complex","Factor X (FX), P00742",3.4e+08 M⁻¹ s⁻¹
same,"kcat/KM for FX activation (Xase assay with FVIIIa, PC/PS vesicles, Ca2+)","Factor X (FX), P00742",3.4e+08 M⁻¹ s⁻¹
same,"catalytic activity (kcat/KM) for activation of FX in the Xase complex (FVIIIa, PC/PS vesicles, Ca2+), fluorogenic FXa read-out",[1],displayed some of the greatest increases in catalytic activity
same,KM (Catalytic activity of FIXa variants),"Factor X, P00742",0.0142 µM
same,K0.5,[2],3.46 µM
same,K0.5-mut/K0.5-wt,[2],179
